From PMC7116876, “Mechanistic Insights into Regulation of the ALC1 Remodeler by the Nucleosome Acidic Patch” (Cell reports, 2020)
Where a chain is given by its changes, count along the chain named. Names and notes keep the numbering of the source.

B1: ALC1^fl R860W: constitutively active mutant of ALC1 (protein)
chain: FLLRLHTEGRAEAARVQEQDLRQWGLTGIHLRSYQLEGVNWLAQRFHCQNGCILGDEMGLGKTCQTIALFIYLAGRLNDEGPFLILCPLSVLSNWKEEMQRFAPGLSCVTYAGDKEERACLQQDLKQESRFHVLLTTYEICLKDASFLKSFPWSVLVVDEAHRLKNQSSLLHKTLSEFSVVFSLLLTGTPIQNSLQELYSLLSFVEPDLFSKEEVGDFIQRYQDIEKESESASELHKLLQPFLLRRVKAEVATELPKKTEVVIYHGMSALQKKYYKAILMKDLDAFENETAKKVKLQNILSQLRKCVDHPYLFDGVEPEPFEVGDHLTEASGKLHLLDKLLAFLYSGGHRVLLFSQMTQMLDILQDYMDYRGYSYERVDGSVRGEERHLAIKNFGQQPIFVFLLSTRAGGVGMNLTAADTVIFVDSDFNPQNDLQAAARAHRIGQNKSVKVIRLIGRDTVEEIVYRKAASKLQLTNMIIEGGHFTLGAQKPAADADLQLSEILKFGLDKLLASEGSTMDEIDLESILGETKDGQWVSDALPAAEGGSRDQEEGKNHMYLFEGKDYSKEPSKEDRKSFEQLVNLQKTLLEKASQEGRSLRNKGSVLIPGLVEGSTKRKRVLSPEELEDRQKKRQEAAAKRRRLIEEKKRQKEEAEHKKKMAWWESNNYQSFCLPSEESEPEDLENGEESSAELDYQDPDATSLKYVSGDVTHPQAGAEDALIVHCVDDSGHWGRGGLFTALEKRSAEPRKIYELAGKMKDLSLGGVLLFPVDDKESRNKGQDLLALIVAQHRDRSNVLSGIKMAALEEGLKKIFLAAKKKKASVHLPRIGHATKGFNWYGTERLIWKHLAARGIPTYIYYFPRSK
modifications: left off: His6, end not stated, state not stated
B2: ALC1^fl R611A/S612A/R860W: ALC1^RLS Arg anchor (R611) and adjacent residue (S612) mutated to alanines (protein)
chain: B1 chain with R596A, S597A
modifications: left off: His6, end not stated, state not stated
notes: ALC1^RLS Arg anchor (R611) and adjacent residue (S612) mutated to alanines

Assays:
[1] = test system: ALC1-catalyzed remodeling of APM/APM nucleosomes; assay: Ensemble FRET nucleosome remodeling, APM/APM versus WT/WT nucleosomes; format: biochemical, Homo sapiens ALC1; Xenopus laevis histones; settings: 20 μM remodeler, 10 nM nucleosomes, 1.5 mM ATP; n = 3 independent experiments
Text: (§1) cDNAs for ALC1 and PARP1 were of Homo sapiens origin. Histone proteins (recombinantly expressed in E. coli) were of Xenopus laevis origin. Cell lines as well as growth conditions are described in the Method Details.
(§2) Oligonucleotides used in this study were ordered from IDT (see Table S3). The ALC1^fl (16-879) construct contains the human ALC1 sequence and a 6xHis-tag, as previously published ([Lehmann et al., 2017]). All point mutations were generated by PCR-based site-directed mutagenesis. The plasmid for human PARP1 (1-1014) with an N-terminal 6xHis-tag was a kind gift from John M. Pascal ([Langelier et al., 2017]).
(§3) The DNA constructs used in the nucleosome assembly for single-molecule and ensemble remodeling studies comprised the Widom 601 nucleosome positioning sequence ([Lowary and Widom, 1998]) as well as either 3 bp or 12 bp of linker DNA on one side and 78 bp on the other side (for the single-molecule remodeling construct) or 63 bp of linker DNA on one side and no linker DNA on the other side (for the ensemble remodeling construct). […] The DNA constructs for the assembly of nucleosomes used in fluorescence anisotropy experiments and ATPase assays comprised the Widom 601 positioning sequence without additional linker DNA (for the fluorescence anisotropy construct) or 63 bp of linker DNA on one side and no linker DNA on the other side (for the ATPase assay construct). […]

[2] = test system: ALC1 ATPase with WT/WT nucleosomes; assay: Nucleosome-stimulated ATPase activity; format: biochemical, Homo sapiens ALC1; Xenopus laevis histones
Description: (§4) ATPase activity was measured using a coupled assay that measures ADP production as described previously, ([Willhoft et al., 2016]). Final concentrations of 0.45 mM NADH, 1.0 mM phosphoenolpyruvate, 54 U/ml pyruvate kinase (Sigma), and 78 U/ml lactic dehydrogenase (Sigma) were used. For measurements of nucleosome-stimulated ATPase activity, reactions contained 20 μM ALC1,2 μM WT/WT nucleosomes, and 1 mM ATP in a volume of 30 μl. Fluorescence was monitored (excitation wavelength: 340 nm; emission wavelength: 430 nm) at 37°C using a CLARIOstar microplate reader (BMG Labtech) and black low-volume 384-well microplates (Corning). For measurements of DNA-stimulated ATPase activity, the absorbance was monitored at 340 nm for reactions containing a final of 1 μM ALC1 and either 20 μM or 50 μM 145 bp nucleosomal double-stranded (ds) DNA in 100 μl. Reaction rates were determined using mean linear slopes. For measurements of nucleosome-stimulated ATPase activity, we estimated Vmax for both ALC1^fl R860W and ALC1^fl R611A/S612A/R860W using the Michaelis-Menten equation and the Km values that we obtained from nucleosome sliding kinetics in Figure 3B.
For fluorescence anisotropy binding experiments, the reported values represent the mean ± SEM from 3 independent experiments. For ATPase activity measurements, the reported values represent the mean ± standard deviation from 3 independent experiments. For ensemble nucleosome remodeling time courses, each experimental condition was recorded in 3 independent experiments, and representative remodeling time courses are shown. Relative remodeling rates derived from these curves represent the mean ± standard deviation from 3 independent experiments. For smFRET experiments, values are reported as mean ± SEM from several experiments as specified in the corresponding figure legends. For association kinetics from live-cell imaging, error bars represent SEM from N ≥ 131 traces from 3 independent experiments.

[3] = test system: ALC1 ATPase with 145 bp dsDNA; assay: DNA-stimulated ATPase activity; format: biochemical, Homo sapiens ALC1; settings: 1 μM ALC1, 20 μM or 50 μM 145 bp dsDNA, 1 mM ATP; N = 3 independent experiments
Description: as §4, with “For measurements of nucleosome-stimulated ATPase activity, we estimated Vmax for both ALC1^fl R860W and ALC1^fl R611A/S612A/R860W using the Michaelis-Menten equation and the Km values that we obtained from nucleosome sliding kinetics in Figure 3B.” left out
(§5) For fluorescence anisotropy binding experiments, the reported values represent the mean ± SEM from 3 independent experiments. […] For ensemble nucleosome remodeling time courses, each experimental condition was recorded in 3 independent experiments, and representative remodeling time courses are shown. […]

[4] = test system: ALC1-catalyzed remodeling of WT/WT nucleosomes; assay: Ensemble FRET nucleosome remodeling, WT/WT nucleosomes; format: biochemical, Homo sapiens ALC1; Xenopus laevis histones
Text: as §1, §2, §3
Nucleosome ensemble remodeling kinetics were measured by monitoring the Cy5 (under 620 nm and 520 nm excitation) and Cy3 (under 520 nm excitation) fluorescence emission signals of a solution of FRET-labeled nucleosomes using a Spark (Tecan) or CLARIOstar (BMG Labtech) multimode microplate reader. […] Reaction kinetics were analyzed assuming a standard Michaelis-Menten mechanism.
as §5

[5] = test system: individual WT/APM nucleosomes; assay: smFRET remodeling directionality, WT/APM nucleosomes; format: biochemical, Xenopus laevis histones; settings: 2.5 μM remodeler, 1 mM ATP, n > 100 traces
Text: (§6) The DNA constructs used in the nucleosome assembly for single-molecule and ensemble remodeling studies comprised the Widom 601 nucleosome positioning sequence ([Lowary and Widom, 1998]) as well as either 3 bp or 12 bp of linker DNA on one side and 78 bp on the other side (for the single-molecule remodeling construct) or 63 bp of linker DNA on one side and no linker DNA on the other side (for the ensemble remodeling construct). All constructs were 5’-labeled with Cy5 on the short linker end. The constructs for single-molecule experiments additionally featured a biotin on the long linker end. […] The DNA constructs for the assembly of nucleosomes used in fluorescence anisotropy experiments and ATPase assays comprised the Widom 601 positioning sequence without additional linker DNA (for the fluorescence anisotropy construct) or 63 bp of linker DNA on one side and no linker DNA on the other side (for the ATPase assay construct). […]
(§7) Using the DNA constructs for single-molecule FRET described above, we first generated oriented hexasomes with H2A-Cy3 on the short linker side using a salt dialysis method as described previously ([Dyer et al., 2004]; [Levendosky et al., 2016]; [Sabantsev et al., 2019]). […] Data were analyzed using custom scripts for the Fiji distribution of ImageJ ([Schindelin et al., 2012]; [Schneider et al., 2012]), IDL, and MATLAB ([Sabantsev et al., 2019]). […]

[6] = test system: individual WT/WT nucleosomes; assay: smFRET remodeling directionality, WT/WT nucleosomes; format: biochemical, Xenopus laevis histones; settings: 2.5 μM remodeler, 1 mM ATP, n > 100 traces
Text: as §6, §7

[7] = test system: individual WT/WT nucleosomes with 3 bp of linker DNA; assay: smFRET remodeling, pause duration; format: biochemical, Xenopus laevis histones
Text: as §6, §7

[8] = WT/WT nucleosomes 10 nM, various remodeler concentrations, Michaelis-Menten

Molecule | fold decrease in remodeling rate, APM/APM versus WT/WT nucleosomes [1] | nucleosome-stimulated ATPase activity, fold higher than DNA-stimulated ATPase activity ([2]; 20 μM ALC1 with 2 μM WT/WT nucleosomes versus 1 μM ALC1 with dsDNA, 1 mM ATP) | DNA-stimulated ATPase activity, ALC1^fl R860W versus ALC1^fl R611A/S612A/R860W [3] | FRET change upon addition of remodeler and ATP ([4]; WT/WT end-positioned nucleosomes, saturating remodeler and ATP) | fraction of WT/APM nucleosomes moved toward the shorter linker end [5] [%] | fraction of single-nucleosome remodeling traces with initial decrease in FRET (toward longer linker DNA) [6] [%] | fraction of traces with opposite directionality (toward shorter linker DNA) [6] [%] | fold reduction of ATPase rate versus ALC1^fl R860W ([2]; 20 μM ALC1, 2 μM WT/WT nucleosomes, 1 mM ATP, 37°C, n = 3 independent experiments) | fold reduction of ATPase rate versus ALC1^fl R860W, saturating conditions (Vmax) ([2]; under saturating conditions, Vmax estimated with Michaelis-Menten equation and Km values from nucleosome sliding kinetics) | fold decrease of maximum rate for remodeling versus ALC1^fl R860W [4, 8] | fold increase of Michaelis constant for remodeling versus ALC1^fl R860W [4, 8] | average binding time relative to average pause duration (pause fold shorter) ([7]; remodeler concentration 20 μM) [fold] | increase in observed pause duration on lowering remodeler concentration by a factor of 4 ([7]; remodeler concentration lowered 4-fold) [%]
B1 | ~ 13.7 fold | ~ 1.6 fold | essentially identical DNA-stimulated ATPase activity | FRET decreased | 89 | 62 | 38 |  |  |  |  |  | 
B2 | ~ 3.2 fold |  | essentially identical DNA-stimulated ATPase activity |  |  |  |  | ~ 2.5 fold | ~ 2 fold | ~ 6.4 fold | ~ 5.3 fold | 2.8 | 30
